From article PMC8402785

How the values were obtained:
[1] = biological target: recombinant HAdV-C5 fibre knob protein (human adenovirus type 5 (HAdV-C5))
[2] = biological target: recombinant HAdV-D49 fibre knob protein (human adenovirus type 49 (HAdV-D49)); assay: gel electrophoresis with Coomassie staining, with or without denaturing agent; 5 µg and 10 µg of recombinant knob, with or without treatment with a denaturing agent, stained with Coomassie; validation of knob trimerisation

Substance | stoichiometry N [1] | stoichiometry N [2]
recombinant HAdV-C5 fibre knob protein (domain or fragment) | 3 | 
recombinant HAdV-D49 fibre knob protein (domain or fragment) |  | 3
